Data on 167 variants can be found in the Human Domainome abundance scans (Beltran et al. 2025).

± gives the uncertainty stated by the source.

The chains are these.
B1: F-BAR and double SH3 domains protein 1, residues 467 to 528; numbered along this chain, Q86WN1 (parent)
chain: RALPCPAHVVFRYQAGREDELTITEGEWLEVIEEGDADEWVKARNQHGEVGFVPERYLNFPD

Variants of B1 are the subject of this series. As to the kind of experiment: abundance fitness (aPCA) (normalised: wild type 0, dead -1); higher = more abundant; growth selection in yeast, the domain comes from the species named. Particulars: Homo sapiens.
Regarding G51E, the abundance fitness is -0.863 ± 0.18.
Turning to G51T, the abundance fitness was -0.698 ± 0.091.
The same measure for G51K: -0.42 ± 0.28; for E33N: -0.183 ± 0.095.
Consider E33I, for which the abundance fitness was -0.785 ± 0.21.
As for E33G, the abundance fitness came to 0.071 ± 0.078.
As for E33C, the abundance fitness was -0.05 ± 0.09.
On to E27I, for which the abundance fitness was -0.468 ± 0.22.
Regarding E27M, the abundance fitness is -0.653 ± 0.12.
With E27R, the abundance fitness is -0.762 ± 0.099.
In the case of E27Y, the abundance fitness was -0.825 ± 0.29.
With V53R, the abundance fitness is -0.662 ± 0.065.
Turning to V53Y, the abundance fitness was -0.466 ± 0.084.
The same measure for V53F: -0.823 ± 0.17; for V53N: -0.829 ± 0.24.
The value for V53E was -0.934 ± 0.16.
With V53H, the abundance fitness is -0.675 ± 0.24.
As to V53C, the abundance fitness is -0.262 ± 0.081.
With E55A, the abundance fitness was -0.042 ± 0.058.
The same measure for W28K: -0.004 ± 0.1; for W28Q: 0.026 ± 0.063; for W28S: -0.014 ± 0.054.
Turning to W28E, the abundance fitness was -0.081 ± 0.14.
Take G48L: the abundance fitness is -0.423 ± 0.059.
In the case of G48R, the abundance fitness was -0.376 ± 0.073.
The same measure for G48V: -0.741 ± 0.092; for L29K: -1.06 ± 0.26.
L29W: the abundance fitness was -1.01 ± 0.21.
For L29V, the abundance fitness is 0.102 ± 0.054.
With L29F, the abundance fitness is -1.03 ± 0.33.
For the variant L29P, the abundance fitness was -0.688 ± 0.11.
Turning to N45H, the abundance fitness is -0.166 ± 0.17.
Take N45V: the abundance fitness was -0.949 ± 0.16.
Take N45M: the abundance fitness is -0.891 ± 0.24.
In the case of N45Q, the abundance fitness is -0.884 ± 0.22.
As to N45A, the abundance fitness was -0.567 ± 0.1.
Consider N45K, for which the abundance fitness was -0.447 ± 0.1.
With N45S, the abundance fitness was -0.571 ± 0.11.
As to C5I, the abundance fitness is -0.419 ± 0.1.
C5Y: the abundance fitness is -0.215 ± 0.077.
The same measure for C5R: -0.431 ± 0.062; for C5D: -1.04 ± 0.4; for C5Q: -0.171 ± 0.09.
As to V50K, the abundance fitness is -0.187 ± 0.075.
Regarding R12E, the abundance fitness amounted to 0.17 ± 0.12.
As for R12S, the abundance fitness was 0.133 ± 0.048.
Regarding R12D, the abundance fitness was -0.024 ± 0.097.
Turning to R12T, the abundance fitness was 0.023 ± 0.097.
The value for R12I was -0.792 ± 0.17; that for F52Q was -0.259 ± 0.071.
The same measure for F52C: -0.189 ± 0.088.
Regarding F52G, the abundance fitness was -0.491 ± 0.055.
On to F52E, for which the abundance fitness was -0.322 ± 0.058.
The value for F52A was -0.249 ± 0.055; that for A15L was -0.718 ± 0.085; that for A15M was -0.79 ± 0.16.
For A15S, the abundance fitness was -0.146 ± 0.052.
In the case of A15D, the abundance fitness is -0.661 ± 0.45.
With H8F, the abundance fitness is -0.591 ± 0.12.
With H8P, the abundance fitness is -0.905 ± 0.14.
Regarding H8Q, the abundance fitness is -0.168 ± 0.077.
As for P54D, the abundance fitness is -0.539 ± 0.16.
For the variant G16Q, the abundance fitness stood at 0.019 ± 0.083.
The same measure for G16K: 0.077 ± 0.074; for G16T: -0.012 ± 0.1; for G16C: 0.035 ± 0.087.
On to A37R, for which the abundance fitness came to 0.141 ± 0.073.
A37Q: the abundance fitness stood at 0.071 ± 0.068.
Take A7P: the abundance fitness was -0.788 ± 0.12.
With A7C, the abundance fitness is -0.441 ± 0.21.
As to A7W, the abundance fitness is -0.98 ± 0.23.
On to A7L, for which the abundance fitness was -0.866 ± 0.086.
On to V9A, for which the abundance fitness turned out to be 0.002 ± 0.058.
Consider V9G, for which the abundance fitness is -0.602 ± 0.081.
In the case of P61S, the abundance fitness is 0.091 ± 0.052.
Regarding P61G, the abundance fitness stood at 0.042 ± 0.067.
For P61K, the abundance fitness came to 0.026 ± 0.11.
As to I23V, the abundance fitness is -0.014 ± 0.045.
The value for I23W was -0.572 ± 0.1; that for I23C was -0.228 ± 0.076.
The value for I23D was -0.739 ± 0.19; that for E25C was -0.325 ± 0.17.
For the variant E25P, the abundance fitness is -0.069 ± 0.12.
Regarding E25Q, the abundance fitness was -0.266 ± 0.24.
As for E25I, the abundance fitness is -0.348 ± 0.22.
Turning to E25D, the abundance fitness is -0.014 ± 0.17.
Take V31R: the abundance fitness was -0.743 ± 0.069.
With V31Y, the abundance fitness was -0.431 ± 0.22.
In the case of V31M, the abundance fitness is -0.501 ± 0.12.
Take E30N: the abundance fitness was -0.208 ± 0.087.
For the variant E30Q, the abundance fitness was -0.02 ± 0.066.
The value for E30K was -0.289 ± 0.099; that for Y57N was 0.109 ± 0.083.
For Y57A, the abundance fitness came out at 0.102 ± 0.048.
The value for Y57G was -0.44 ± 0.065; that for Y57V was 0.103 ± 0.039; that for Y57K was -0.231 ± 0.081.
The value for Y13I was -0.742 ± 0.17; that for Y13F was -0.06 ± 0.066; that for Y13W was -0.167 ± 0.12.
Y13E: the abundance fitness was -0.959 ± 0.21.
For Y13Q, the abundance fitness is -0.406 ± 0.12.
Consider T24H, for which the abundance fitness was 0.036 ± 0.12.
In the case of T24P, the abundance fitness was -0.879 ± 0.12.
For the variant T24G, the abundance fitness is -0.231 ± 0.069.
Consider T24K, for which the abundance fitness was found to be 0.042 ± 0.077.
As to L58R, the abundance fitness was -0.859 ± 0.061.
The value for L58M was -0.574 ± 0.11; that for L58H was -1.12 ± 0.32; that for L58I was -0.088 ± 0.08.
For the variant L58W, the abundance fitness was -0.829 ± 0.07.
The same measure for R17G: -0.09 ± 0.052; for R17E: -0.02 ± 0.083; for R17T: -0.164 ± 0.079.
Take R17C: the abundance fitness is 0.064 ± 0.067.
On to R17H, for which the abundance fitness turned out to be 0.043 ± 0.11.
As for R17F, the abundance fitness is -0.214 ± 0.083.
For R17M, the abundance fitness was -0.091 ± 0.074.
With R17I, the abundance fitness was -0.557 ± 0.14.
Regarding P6C, the abundance fitness was -0.12 ± 0.071.
The same measure for P6D: -0.432 ± 0.14; for P6F: -0.285 ± 0.085.
Regarding P6K, the abundance fitness is -0.219 ± 0.075.
In the case of L21D, the abundance fitness was -0.851 ± 0.35.
As for L21I, the abundance fitness was -0.49 ± 0.12.
The value for L21M was -0.198 ± 0.071; that for L21H was -0.701 ± 0.43.
On to L21W, for which the abundance fitness was -0.648 ± 0.11.
Turning to E18P, the abundance fitness was -0.062 ± 0.067.
The same measure for E18V: -0.134 ± 0.049; for E18H: -0.531 ± 0.34.
Turning to E18T, the abundance fitness is -0.013 ± 0.071.
For the variant R44I, the abundance fitness is -0.036 ± 0.09.
The value for R44F was -0.756 ± 0.09.
In the case of Q14K, the abundance fitness is -0.078 ± 0.079.
Regarding Q14L, the abundance fitness is -0.208 ± 0.044.
The same measure for Q14S: -0.106 ± 0.053; for Q14V: -0.14 ± 0.049.
Turning to Q14H, the abundance fitness is -0.071 ± 0.072.
On to Q14W, for which the abundance fitness was -0.481 ± 0.11.
On to H47F, for which the abundance fitness is -0.246 ± 0.12.
The same measure for H47Y: -0.215 ± 0.11.
Take H47T: the abundance fitness is -0.172 ± 0.065.
With H47I, the abundance fitness was -0.176 ± 0.14.
The same measure for H47D: -0.006 ± 0.081; for H47Q: -0.026 ± 0.061; for H47M: -0.039 ± 0.052.
Consider H47R, for which the abundance fitness was determined as 0.092 ± 0.048.
In the case of H47L, the abundance fitness turned out to be 0.01 ± 0.041.
A43G: the abundance fitness was -0.299 ± 0.078.
The same measure for A43R: -0.842 ± 0.15; for A43S: -0.578 ± 0.079.
Take A43T: the abundance fitness was -0.409 ± 0.1.
The same measure for A43W: -0.83 ± 0.15.
On to A43C, for which the abundance fitness is -0.038 ± 0.12.
On to A43M, for which the abundance fitness was -0.548 ± 0.11.
Take A43Y: the abundance fitness was -0.914 ± 0.21.
Consider F60R, for which the abundance fitness is -0.329 ± 0.047.
For the variant F60M, the abundance fitness is -0.223 ± 0.079.
As to F60V, the abundance fitness was -0.157 ± 0.05.
The same measure for V41A: -0.495 ± 0.081; for V41M: -0.199 ± 0.069; for V41I: -0.353 ± 0.097.
For the variant V41R, the abundance fitness was -0.526 ± 0.079.
For the variant V41G, the abundance fitness is -0.72 ± 0.11.
For the variant V41N, the abundance fitness is -1.01 ± 0.3.
The value for V41F was -0.262 ± 0.085.
